The subject of series [1] is PARP2 (Homo sapiens). Briefly: fluorescence polarization. As to conditions: not stated in the material (methods in supplement). (In fluorescence polarisation assays a small probe gives low polarisation when free and higher when bound to something large.)
In series [2] the test system is PARP1 (Homo sapiens). The series can be described thus: fluorescence polarization. As to conditions: not stated in the material (methods in supplement).

The text below walks through data of article PMC7386247.

A word on the Kd: it is the constant that tells how readily two partners part at equilibrium. On to 19mer, for which the Kd in series [1] was determined as 55 nM.

For gas5, the Kd in series [2] is 350 nM; in series [1], 40 nM.

As for p18mer DNA, the results for the Kd in series [2] and in series [1] were 13 nM and 59 nM, respectively.

In the case of tRNALeu, the Kd amounted to 159 nM in series [2] and 37 nM in series [1].
